doi:10.1101/2024.05.28.596263

Tests used:
Test in all cases: cryo-EM structure
[1] = target: dephosphorylated CFTR of the P-ATP + AMP-PNP sample (human) (UniProt P13569)
[2] = target: fully-phosphorylated CFTR carrying the ATP-hydrolysis-disrupting E1371Q mutation (human) (UniProt P13569)
[3] = target: recombinant human CFTR (cystic fibrosis transmembrane conductance regulator), wild type, dephosphorylated (human) (UniProt P13569)

## protein kinase A catalytic subunit purified from bovine heart (from UniProt P00517 1-351) (enzyme)
[1]
  stoichiometry N (PKA-C per CFTR): 1
[2]
  stoichiometry N (PKA-C per CFTR): 1
[3]
  stoichiometry N (PKA-C per CFTR): 2
